Experimental findings from patent US7626003B2, “Genetically engineered cDNA of rat bcl-x gene and an improved protein” (priority 1999, dated 2009) are described below.

Data set [1] relates to human leukemia cell line Jurkat. The data set is described as follows: Resistance of Jurkat transfectants to apoptosis induced by serum withdrawal (trypan blue exclusion). In kind it is cell-based. The note with it: serum-free RPMI1640, surviving cells counted daily (FIG. 3). The method, then: The cells were washed 3 times with PBS and suspended in RPMI1640 medium containing no serum at 1×10^5 cells/ml. […] The number of the cells was carefully controlled to be less than 5×10^5 cells/ml. When the cell number was expected to exceed the limitation, the culture medium was diluted 2 fold. Every 3 days, the half of the serum-free medium was replaced with the fresh medium.

In data set [2] the test system is murine premyeloid cell line FDC-P1. The experiment in a line: Resistance of FDC-P1 transfectants to apoptosis induced by depletion of the cytokine IL-3. In kind it is cell-based. The source says:
(§1) For the transfectant FDC-P1bcl-xFNK cells prepared in Example 2, the resistance was examined to a variety of apoptosis-inducing stimuli. In these figures, the empty marks, ⋄, □, Δ, ∇, and ◯ represent 5 independent transfectants, FDC-P1bcl-xFNK-1, -2, -3, -4, and -5, respectively. […] The mark ▪ represents FDC-P1vec in which the empty vector plasmid DNA has been introduced.
The result are shown in FIG. 16, in which the number of the surviving cells immediately after depletion of IL-3 was taken as 100%. In this experiment, the cells other than FDC-P1vec were diluted 5 times with the fresh medium containing no IL-3 every 3rd day.

For data set [3] the test system is unchanged. The experiment in a line: Resistance of FDC-P1 transfectants to TN-16 and staurosporine (WST-1 assay). The note with it: TN-16 50 μM. The class given is cell-based. The protocol: as §1
The cells were suspended in culture medium at 2×10^5 cells/ml, to which TN-16 (50 μM) and staurosporine (10 nM) was then added. The dehydrogenase activity of the cells (100 μl of the culture broth) was determined daily using the Cell Counting Kit (Dojin Chemical) and WST-1 as a substrate (WST-1 Assay). The enzyme activity was taken as 100% immediately before addition of the agents.
For orientation: Tetrazolium dyes change colour on reduction, which living cells bring about.

Data set [4] deals with human leukemia cell line Jurkat. The data set is described as follows: Resistance of Jurkat transfectants to heat treatment (trypan blue exclusion). The note with it: 45° C. for 10 minutes (FIG. 12). The class given is cell-based.
For data set [5] the test system is unchanged.
Method: For the transfected Jurkatbcl-xFNK cells prepared in Example 2, the resistance (non-sensitivity) to a variety of apoptosis-inducing stimuli was examined.
The cells were suspended in RPMI1640 medium at 1×10^5 cells/ml, to which staurosporine (20 nM), TN-16 (10 μM), camptothecin (10 μM), hydroxyurea (1 mM), trichostatin A (0.25 μg/ml), hydrogen peroxide (0.05 mM), or paraquat (1 mM) was then added. And the cells were incubated. The surviving cells were counted by the trypan blue exclusion everyday.
Data set [6] has as its system Chinese hamster ovary cell CHO. The experiment in a line: Incubation of CHO transfectants in serum-free medium. In kind it is cell-based. The protocol: The CHO cells (1×10^5 cells) were suspended in culture medium DMEM/F-12 (GIBCO BRL) containing 10% fetal bovine serum, and incubated in a 60-mm dish overnight. The linearized pEF1-BOSbcl-xY22F/Q26N/R165K (10 μg) and the linearized pST-neoB (0.5 μg) having a drug Geneticin-resistant gene were introduced into the CHO cells using a SuperFect Transfection Reagent kit (Qiagen). As a control, the linearized empty vector pEF1-BOS or the linearized pEF1-BOSbcl-x were introduced together with the linearized pST-neoB into the CHO cells. After the transfection treatment, the cells were incubated in culture medium DMEM/F-12 containing 10% fetal bovine serum overnight. Geneticin (700 μg/ml) was added, and the incubation was continued to yield the transfected cells. In the same manner as in Example 3, the transfectants expressing the improved protein Bcl-xFNK or the wild-type Bcl-xL abundantly and to the same level were selected. Thus, CHObcl-x, CHObcl-xFNK, and CHOvec (transfected with the empty vector) were obtained.
Three transfectants, CHObcl-x, CHObcl-xFNK, and CHOvec, prepared in Example 6 were incubated in culture medium DMEM/F-12 containing 10% fetal bovine serum. The cells (1×10^3 cells) were plated in a 100-mm dish containing the medium DMEM/F-12 containing 3% fetal bovine serum. […]

The subject of data set [7] is human leukemia cell line Jurkat. The experiment in a line: Resistance of Jurkat transfectants to anti-Fas antibody (trypan blue exclusion). In kind it is cell-based. The note with it: anti-Fas antibody CH-11 1-1000 ng/ml, 1 day (FIG. 4). The method, then: The results are shown in FIG. 4, wherein the number of the cells incubated without the antibody was taken as 100%.

The test system is the same in data set [8]. The experiment in a line: Dehydrogenase activity of Jurkat transfectants after heat treatment (WST-1 assay). The class given is cell-based. Particulars: 45° C. for 10 minutes, 1st day (FIG. 13). The protocol:
The cells were harvest by centrifugation, then suspended in an equal amount of the fresh culture medium, and incubated at 37° C. In addition, dehydrogenase activities of the cells (100 μl of the culture broth) were determined at 1st day using the Cell Counting Kit (Dojin Chemical) and WST-1 as a substrate (WST-1 Assay). The results are shown in FIG. 13, wherein the enzyme activity of the cells without heat treatment was taken as 100%.

Another data set deals with HeLa cells. The data set is described as follows: Incorporation of TAT-Bcl-xFNK protein in cells (immunofluorescence). The class given is cell-based. Particulars: 1 μM in medium, 24 hours, FITC immunofluorescence (FIG. 18). The method, then:
TAT-Bcl-xFNK protein (1 μM) was added to DMEM/F-12 (Life Technologies) containing 10% FBS (fetal bovine serum), a medium for HeLa cells cultured in a Slide Chamber (Lab-Tek), and the cells were incubated in a CO2 incubator for 24 hours. The cells were then washed twice with PBS. The cells were fixed with paraformaldehyde (4%) dissolved in PBS at room temperature for 45 min. The cells were washed 3 times with PBS (5 minutes/round), and incubated in PBS containing 10% FBS for 20 min. The cells were washed 3 times with PBS (5 minutes/round), and treated with 1.5% FBS-PBS solution containing an anti-rat Bcl-xL monoclonal antibody 35-32 (murine origin) for 30 min. The cells were washed 3 times with PBS (5 minutes/round), and treated with 1.5% FBS-PBS solution containing an anti-mouse IgG antibody conjugated with FITC, for 30 minutes. The cells were washed 3 times with PBS (5 minutes/round), mounted in PBS, and sealed to observe under a fluorescence microscope.

In data set [9] the test system is chondrocyte of cartilage slice from Osteoarthritis patients. The data set is described as follows: Cell death-inhibiting activity in chondrocytes of cartilage slice culture. The class given is cell-based, human. The note with it: 0.2 μM in culture medium, up to day 9, hematoxylin-eosin (FIGS. 19-24). The method, then:
Cartilage was obtained from the femoral bone head of Osteoarthritis patients undergoing total hip arthroplasty. The cartilage tissue above the subchondral bone (10×10 mm; 1.2 mm in thickness) was aseptically sliced using a single-edged razor. The cartilage slice was placed in a 24-well plate and incubated with a DMEM/Ham F-12 mixed medium (Life Technologies) containing 20% FBS (fetal bovine serum) at 37° C. in a CO2 incubator. For a comparative experiment, the expression vector of TAT-Bcl-xL was constructed in the same manner as TAT-Bcl-xFNK, and TAT-Bcl-xL protein was partially purified from Escherichia coli (TAT-Bcl-xL preparation has the same purity). TAT-Bcl-xFNK (prepared from the inclusion body) or TAT-Bcl-xL (prepared from the inclusion body) were added to the culture medium at a concentration of 0.2 μM. As a control, an equal amount of PBS (a solvent used to solubilize the proteins) containing 7M urea and 1 mM DTT was added. The culture medium containing the protein was changed on day 4 and day 7. After incubation for 4 days and 9 days, the cartilage slice was frozen to prepare frozen sections using a cryostat. The sections were stained with hematoxylin-eosin to evaluate the death of chondrocyte.

A further data set has as its system hepatocytes. The experiment in a line: Inhibition of the death of hepatocytes caused by steroid hormone (dexamethasone) in mice. The class given is in vivo. The note with it: mouse, 100 μg intraperitoneal 3 hours before 0.5 mg dexamethasone i.p., liver sections 3 hours later (FIGS. 25-27). The protocol: Three 8-week old mice ([…], 20 g body weight, female) were divided into 3 groups (A, B and C). To the mouse of Group A was intraperitonealy administered PBS solution (0.8 ml) containing 100 μg of TAT-Bcl-xFNK protein (prepared from the soluble fraction). To the mice of Group B and Group C (control) was intraperitonealy administered PBS (0.8 ml) in the same manner. The mice were put back into cages, and after a lapse of 3 hours 0.5 ml of 25% ethanol/PBS solution containing 0.5 mg of a steroid hormone (dexamethasone) was intraperitonealy administered to the mice of Group A and Group B. To the mouse of Group C was intraperitonealy administered 0.5 ml of 25% ethanol/PBS solution. They were put back into cages, and after a lapse of 3 hours killed. Their livers were taken out, and frozen to prepare frozen sections with a cryostat. The sections were stained with hematoxylin-eosin to evaluate the death of hepatocyte.

B1: Bcl-xFNK: improved protein of rat Bcl-xL, SEQ ID NO: 3, with substitutions Tyr22Phe; Gln26Asn; Arg165Lys (protein)
chain: MSQSNRELVVDFLSYKLSQKGFSWSNFSDVEENRTEAPEETEPERETPSAINGNPSWHLADSPAVNGATGHSSSLDAREVIPMAAVKQALREAGDEFELRYRRAFSDLTSQLHITPGTAYQSFEQVVNELFRDGVNWGRIVAFFSFGGALCVESVDKEMQVLVSKIASWMATYLNDHLEPWIQENGGWDTFVDLYGNNAAAESRKGQERFNRWFLTGMTVAGVVLLGSLFSRK
modifications: Artificial Sequence Modified Protein of SEQ ID NO 2
notes: Gln26Asn; Arg165Lys
For the molecule B1, the “survival of transfected cells after serum withdrawal” value in data set [1] is given as “survived for a longer period than the wild-type Bcl-xL-expressing cells”. The “growth in the absence of IL-3” value in data set [2] (medium without IL-3) is “could grow even in the absence of IL-3”. The “resistance to apoptosis induced by depletion of IL-3” value in [2] (medium without IL-3 but with serum (FIG. 16)) was “higher resistance than the transfectant expressing the wild-type Bcl-xL”. The “resistance of transfected cells to TN-16 and staurosporine” value in data set [3] (FDC-P1 transfectants (5 independent), staurosporine 10 nM (FIGS. 14, 15)) was “high resistance to treatment with TN-16 and staurosporine”. For the same molecule, in [3] (FDC-P1 transfectants, staurosporine 10 nM, daily), the “dehydrogenase activity under TN-16 and staurosporine (WST-1)” value is “maintained at high level”. Also, in [4], the “resistance of transfected cells to heat treatment” value is on record as “high resistance to heat treatment”. In addition, the “resistance of transfected cells to cytotoxic drugs” value in data set [5] was “high resistance to all of the cytotoxic drugs tested”. Further, the “growth of transfected CHO cells in serum-free medium” value in [6] (DMEM/F-12 lacking serum from day 6, another 6 days (FIG. 17)) was “grew far better than CHOvec”. In addition, the “dying or dead cells in colonies in serum-free medium” value in [6] (compared with CHObcl-x expressing Bcl-xL (FIG. 17)) was “fewer cells were dying or dead”. Further, the “resistance of transfected cells to anti-Fas antibody” value in data set [7] is given as “high resistance to the highly concentrated anti-Fas antibody”. In addition, the “dehydrogenase activity after heat treatment (WST-1)” value in [8] is “maintained at high level even after heat treatment”.

B2: Bcl-xL: wild-type protein expressed from the rat bcl-x gene, SEQ ID NO: 2 (protein, listed as Rattus norvegicus)
chain: MSQSNRELVVDFLSYKLSQKGYSWSQFSDVEENRTEAPEETEPERETPSAINGNPSWHLADSPAVNGATGHSSSLDAREVIPMAAVKQALREAGDEFELRYRRAFSDLTSQLHITPGTAYQSFEQVVNELFRDGVNWGRIVAFFSFGGALCVESVDKEMQVLVSRIASWMATYLNDHLEPWIQENGGWDTFVDLYGNNAAAESRKGQERFNRWFLTGMTVAGVVLLGSLFSRK
Turning to B2, the “survival of transfected cells after serum withdrawal” value in data set [1] was “survived longer than the control parent cells and the vector-transfected cells”.

B3: TAT-Bcl-xFNK: Bcl-xFNK in which a protein-transduction-domain peptide of HIV TAT protein is fused at the N-terminal (protein)
chain: YGRKKRRQRRRMSQSNRELVVDFLSYKLSQKGFSWSNFSDVEENRTEAPEETEPERETPSAINGNPSWHLADSPAVNGATGHSSSLDAREVIPMAAVKQALREAGDEFELRYRRAFSDLTSQLHITPGTAYQSFEQVVNELFRDGVNWGRIVAFFSFGGALCVESVDKEMQVLVSKIASWMATYLNDHLEPWIQENGGWDTFVDLYGNNAAAESRKGQERFNRWFLTGMTVAGVVLLGSLFSRK
As to B3, the “incorporation of the protein into cells” value in the data set with HeLa cells is “has passed through the cellular membrane and has been incorporated in the cells”. Also, in data set [9], the “inhibition of the death of chondrocyte” value is listed as “inhibits the death of chondrocyte more strongly than TAT-Bcl-xL”. Besides, the “inhibition of degeneration of hepatic tissue and cell death caused by dexamethasone” value in the data set with hepatocytes is reported as “markedly inhibited”.
